What was measured:
[1] = biological target: MPER-AdiC fusion protein (Salmonella enterica (AdiC); HIV-1 (gp41 MPER epitope)) (UniProt P60065); test: gel filtration chromatography, complex against AdiC alone
[2] = biological target: MPER-Fluc-Bpe fusion protein (Bordetella pertussis (Fluc-Bpe); HIV-1 (gp41 MPER epitope)); test: gel filtration chromatography, complex against fusion protein alone
[3] = biological target: MPER-GlpF fusion protein (E. coli (GlpF); HIV-1 (gp41 MPER epitope)); test: size exclusion chromatography, complex against GlpF alone
[4] = biological target: MPER-AdiC fusion protein (Salmonella enterica (AdiC); HIV-1 (gp41 MPER epitope)) (UniProt P60065)
[5] = biological target: MPER-Fluc-Bpe fusion protein (Bordetella pertussis (Fluc-Bpe); HIV-1 (gp41 MPER epitope)); test: negative stain EM 2-D class averages, 1 dimer:0.3 Fab molar ratio

Row | Substance | elution volume shift [1] [mL] | shift in the retention time [2] [mL] | elution volume shift [3] [mL] | stoichiometry (Fab per AdiC dimer) (Fab per AdiC dimer) [4] | percent of total particles in the doubly-occupied class [5] [%]
1 | 10E8v4 Fab fragment | 0.5 | 2 | 1 | 1 | –
2 | VRC42 Fab fragment | – | – | – | – | 2.5

From US20230174629A1
